Assay results taken from patent publication US20250333497A1, “ACTIVATING ANTIBODIES OF RECEPTOR PROTEINS PLXDC1 AND PLXDC2” (THE REGENTS OF THE UNIVERSITY OF CALIFORNIA, priority 2022, published 2025).
Positions count from the first letter of the chain named. Blank lines part the entries; values can stand above or below the molecule they belong to.

Columns and labels:
[1] = target: T1, full length PLXDC1 (PLXDC1-Full) (Homo sapiens, UniProt Q8IUK5); test: Domain A binding specificity: binding to full length PLXDC1 expressed in transfected cells; conditions: for binding to PLXDC1: antibodies of Table 3 tested for ability to bind Domain A; for binding to full length PLXDC1 (PLXDC1-Full): transfected into a cell line that does not express PLXDC1, FIG. 3-4
T1 construct: expressed in transfected cells
T1 sequence (Q8IUK5 19-500): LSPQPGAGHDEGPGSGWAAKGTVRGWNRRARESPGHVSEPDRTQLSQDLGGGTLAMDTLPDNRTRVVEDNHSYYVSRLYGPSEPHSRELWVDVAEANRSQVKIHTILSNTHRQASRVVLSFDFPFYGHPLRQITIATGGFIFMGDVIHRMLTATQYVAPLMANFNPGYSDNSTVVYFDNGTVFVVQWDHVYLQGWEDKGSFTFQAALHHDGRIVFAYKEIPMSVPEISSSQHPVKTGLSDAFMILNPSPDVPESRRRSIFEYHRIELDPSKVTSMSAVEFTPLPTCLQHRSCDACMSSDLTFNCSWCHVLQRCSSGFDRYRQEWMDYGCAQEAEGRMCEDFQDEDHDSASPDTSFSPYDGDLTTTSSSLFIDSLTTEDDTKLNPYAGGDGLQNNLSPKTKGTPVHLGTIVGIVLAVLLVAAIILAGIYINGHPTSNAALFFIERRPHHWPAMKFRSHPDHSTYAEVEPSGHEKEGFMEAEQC
Description: (§1) The specific binding to Domain A of a PLXDC protein can be tested with a method described herein. In some embodiments, the method employs a PLXDC with the Domain A deleted. […] An example is Compound 369 as described above.
(§2) The Domain A-binding antibodies are 3-C11, 4-A8, 5-E2, 2-H2, 3-G6, 3-G7, 8-A7, 8-A9, 8-C9 and 8-D9.
(§3) Both full length PLXDC1 and Domain A deleted PLXDC1 (PLXDC1-dA) have an epitope tag on the N-terminus.

[2] = target: T2, Domain A-deleted PLXDC1 (PLXDC1-dA) (Homo sapiens, UniProt Q8IUK5); test: Domain A binding specificity: binding to Domain A-deleted PLXDC1 expressed in transfected cells; conditions: for binding to PLXDC1 mutant with Domain A deleted: antibodies of Table 3 tested for ability to bind Domain A; for binding to Domain A-deleted PLXDC1 (PLXDC1-dA): transfected into a cell line that does not express PLXDC1, FIG. 3-4
T2 construct: expressed in transfected cells
Description: as §1, §2, §3

binding to PLXDC1 [1]: able to bind PLXDC1
binding to full length PLXDC1 (PLXDC1-Full) [1]: only bound to full length PLXDC1
binding to PLXDC1 mutant with Domain A deleted [2]: not the mutant with Domain A deleted
binding to Domain A-deleted PLXDC1 (PLXDC1-dA) [2]: did not bind to Domain A-deleted PLXDC1
B1: A002: VH SEQ ID NO:82, VL SEQ ID NO:83; Domain A-binding PLXDC1-activating antibody (antibody, V domains shown)
VH: EVQLLESGGGLVQPGGSLRLSCAASGFTFKNYAMSWVRQAPGKGLEWVSAISASGGYTYYADSVKGRFTISRDNSKNTLYLQMNSLRAEDTAVYYCARGRWGAFDYWGQGTLVTVSS
VL: QSVLTQPPSVSGAPGQRVTISCTGSSSNIGSGYDVHWYQQLPGTAPKLLIYGNRNRPSGVPDRFSGSKSGTSASLAITGLQAEDEADYYCQSYDSSLKTWVFGGGTKLTVL

binding to PLXDC1 [1]: able to bind PLXDC1
binding to full length PLXDC1 (PLXDC1-Full) [1]: only bound to full length PLXDC1
binding to PLXDC1 mutant with Domain A deleted [2]: not the mutant with Domain A deleted
binding to Domain A-deleted PLXDC1 (PLXDC1-dA) [2]: did not bind to Domain A-deleted PLXDC1
B2: A007: VH SEQ ID NO:112, VL SEQ ID NO:113; Domain A-binding PLXDC1-activating antibody (antibody, V domains shown)
VH: EVQLLESGGGLVQPGGSLRLSCAASGFTFRNYAMSWVRQAPGKGLEWVSSISGGGINTYYADSVKGRFTISRDNSKNTLYLQMNSLRAEDTAVYYCARVRSYSGPGYFDYWGQGTLVTVSS
VL: EIVMTQSPATLSVSPGDRATLSCRASRSVSSNLAWYQQKPGQAPRLLIYGASTRATGIPARFSGSGSGTEFTLTISSLQSEDFAVYYCQQYYNWPLTFGQGTKVEIK

binding to PLXDC1 [1]: able to bind PLXDC1
binding to PLXDC1 mutant with Domain A deleted [2]: not the mutant with Domain A deleted
B3: A010: VH SEQ ID NO:176, VL SEQ ID NO:177; Domain A-binding PLXDC1-activating antibody (antibody, V domains shown)
VH: QVQLVQSGAEVKKPGSSVKVSCKASGGTFSDEAIHWVRQAPGQGLEWMGRIIPVLGIASYAQKFQGRVTITADESTSTAYMELSSLRSEDTAVYYCARGLSRRAFYFDYWGQGTLVTVSS
VL: DIQMTQSPSSLSASVGDRVTITCRASQTIGNYLNWYQQKPGKAPKLLIYVASSLQSGVPSRFSGSGSGTDFTLTISSLQPEDFATYYCQQSYRYPYTFGQGTKVEIK

binding to PLXDC1 [1]: able to bind PLXDC1
binding to full length PLXDC1 (PLXDC1-Full) [1]: only bound to full length PLXDC1
binding to PLXDC1 mutant with Domain A deleted [2]: not the mutant with Domain A deleted
binding to Domain A-deleted PLXDC1 (PLXDC1-dA) [2]: did not bind to Domain A-deleted PLXDC1
B4: A001: VH SEQ ID NO:38, VL SEQ ID NO:39; Domain A-binding PLXDC1-activating antibody (antibody, V domains shown)
VH: EVQLLESGGGLVQPGGSLRLSCAASGFTFSSYAMSWVRQAPGKGLEWVSTIYASGATTYYADSVKGRFTISRDNSKNTLYLQMNSLRAEDTAVYYCARLKLYHAAFDIWGQGTLVTVSS
VL: B3 VL with T28D, G30S, N31S, V50T, R93S, Y96L

binding to PLXDC1 [1]: able to bind PLXDC1
binding to full length PLXDC1 (PLXDC1-Full) [1]: only bound to full length PLXDC1
binding to PLXDC1 mutant with Domain A deleted [2]: not the mutant with Domain A deleted
binding to Domain A-deleted PLXDC1 (PLXDC1-dA) [2]: did not bind to Domain A-deleted PLXDC1
B5: A005: VH SEQ ID NO:70, VL SEQ ID NO:71; Domain A-binding PLXDC1-activating antibody (antibody, V domains shown)
VH: QVQLVESGGGVVQPGRSLRLSCAASGFTFSDYGMHWVRQAPGKGLEWVAVISYDGSRKYYANSVKGRFTISRDNSKNTLYLQMNSLRAEDTAVYYCARGSYSDGFDVWGQGTLVTVSS
VL: B3 VL with T28S, G30S, N31R, P40T, V50G, R93S, Y94T

binding to PLXDC1 [1]: able to bind PLXDC1
binding to full length PLXDC1 (PLXDC1-Full) [1]: only bound to full length PLXDC1
binding to PLXDC1 mutant with Domain A deleted [2]: not the mutant with Domain A deleted
binding to Domain A-deleted PLXDC1 (PLXDC1-dA) [2]: did not bind to Domain A-deleted PLXDC1
B6: A004: VH SEQ ID NO:20, VL SEQ ID NO:21; Domain A-binding PLXDC1-activating antibody (antibody, V domains shown)
VH: B5 VH with D54E, R57N, K58E, N62D, Y101E, S102G, D103S
VL: B3 VL with T28R, G30S, V50A, R93S, Y94P

binding to PLXDC1 [1]: able to bind PLXDC1
binding to PLXDC1 mutant with Domain A deleted [2]: not the mutant with Domain A deleted
B7: A008: VH SEQ ID NO:116, VL SEQ ID NO:117; Domain A-binding PLXDC1-activating antibody (antibody, V domains shown)
VH: EVQLLESGGGLVQPGGSLRLSCAASGFTFSNYAMSWVRQAPGKGLEWVSAISGGGSRTYYADSVKGRFTISRDNSKNTLYLQMNSLRAEDTAVYYCAREARVLGYSLDYWGQGTLVTVSS
VL: B3 VL with T28R, N31K, V50A, R93S, Y96L
